Results reported in patent US20230416365A1 (Hoffmann-La Roche, published 2023).
Changes are numbered by the printed parent chain.

B1: P001.177 Fab (Fab, V domains shown)
VH: EVQLLESGGGLVQPGGSLRLSCAASGFYFTDYYMNWVRQAPGKGLEWLGFISNKANAYTTEYSASVKGRFTISRDKSKNTLYLQMNSLRAEDTATYYCTRDRGLRFYFDYWGQGTTVTVSS
VL: EIVLTQSPATLSLSPGERATLSCRASSSVTYIHWYQQKPGQAPRSWIYATSNLASGIPARFSGSGSGTDFTLTISSLEPEDFAVYYCQHWSSKPPTFGQGTKLEIK
notes: Fab from E. coli
B2: P002.139 Fab (Fab, V domains shown)
VH: B1 VH with Y33A, F50V
VL: B1 VL with R24H
notes: Fab from E. coli
B3: P005.097 Fab (Fab, V domains shown)
VH: B1 VH with Y28T, S52G, Y107S
VL: B1 VL with K93Q
notes: Fab from E. coli
B4: P005.102 Fab (Fab, V domains shown)
VH: B1 VH with Y28T, S52G, L104I, Y107Q
VL: B1 VL with P94S
notes: Fab from E. coli
B5: P005.103 Fab (Fab, V domains shown)
VH: B1 VH with Y28T, S52G, L104I
VL: B1 VL with K93I, P94S
notes: Fab from E. coli
B6: P006.038 Fab (Fab, V domains shown)
VH: B1 VH with Y28T, S52G, L104I, Y107G
VL: B1 VL with K93V
notes: Fab from E. coli
B7: FAP (4B9) - CD28 (CD28(SA)_Variant 19) 1+1 (bispecific antibody, human IgG1, kappa, L234A L235A)
heavy 1: EIVLTQSPGTLSLSPGERATLSCRASQSVTSSYLAWYQQKPGQAPRLLINVGSRRATGIPDRFSGSGSGTDFTLTISRLEPEDFAVYYCQQGIMLPPTFGQGTKVEIKSSASTKGPSVFPLAPSSKSTSGGTAALGCLVKDYFPEPVTVSWNSGALTSGVHTFPAVLQSSGLYSLSSVVTVPSSSLGTQTYICNVNHKPSNTKVDKKVEPKSCDKTHTCPPCPAPEAAGGPSVFLFPPKPKDTLMISRTPEVTCVVVDVSHEDPEVKFNWYVDGVEVHNAKTKPREEQYNSTYRVVSVLTVLHQDWLNGKEYKCKVSNKALGAPIEKTISKAKGQPREPQVCTLPPSRDELTKNQVSLSCAVKGFYPSDIAVEWESNGQPENNYKTTPPVLDSDGSFFLVSKLTVDKSRWQQGNVFSCSVMHEALHNHYTQKSLSLSP
light 1: EVQLLESGGGLVQPGGSLRLSCAASGFTFSSYAMSWVRQAPGKGLEWVSAIIGSGASTYYADSVKGRFTISRDNSKNTLYLQMNSLRAEDTAVYYCAKGWFGGFNYWGQGTLVTVSSASVAAPSVFIFPPSDEQLKSGTASVVCLLNNFYPREAKVQWKVDNALQSGNSQESVTEQDSKDSTYSLSSTLTLSKADYEKHKVYACEVTHQGLSSPVTKSFNRGEC
heavy 2: not shown
light 2: not shown
notes: huIgG1 PG-LALA CrossFab 1+1; also called P1AE3137
B8: FAP (4B9) - CD28 (CD28(SA)_Variant 23) 1+1 (bispecific antibody, human IgG1, kappa, L234A L235A)
heavy 1: B7 heavy 1
light 1: B7 light 1
heavy 2: not shown
light 2: not shown
notes: huIgG1 PG-LALA CrossFab 1+1; also called P1AE3138
B9: FAP (4B9) - CD28 (CD28(SA)_Variant 25) 1+1 (bispecific antibody, human IgG1, kappa, L234A L235A)
heavy 1: B7 heavy 1
light 1: B7 light 1
heavy 2: not shown
light 2: not shown
notes: huIgG1 PG-LALA CrossFab 1+1; also called P1AE3139
B10: FAP (4B9) - CD28 (CD28(SA)_Variant 29) 1+1 (bispecific antibody, human IgG1, kappa, L234A L235A)
heavy 1: B7 heavy 1
light 1: B7 light 1
heavy 2: not shown
light 2: not shown
notes: huIgG1 PG-LALA CrossFab 1+1; also called P1AE3141
B11: FAP (4B9) - CD28 (CD28(SA)_Variant 12) 1+1 (bispecific antibody, human IgG1, kappa, L234A L235A)
heavy 1: B7 heavy 1
light 1: B7 light 1
heavy 2: not shown
light 2: DIQMTQSPSSLSASVGDRVTITCRASQNIYVWLNWYQQKPGKAPKLLIYKASNLYSGVPSRFSGSRSGTDFTLTISSLQPEDFATYYCQQGQTYPYTFGQGTKLEIKRTVAAPSVFIFPPSDRKLKSGTASVVCLLNNFYPREAKVQWKVDNALQSGNSQESVTEQDSKDSTYSLSSTLTLSKADYEKHKVYACEVTHQGLSSPVTKSFNRGEC
notes: huIgG1 PG-LALA CrossFab 1+1; also called P1AE3133

Target: T1, N(A2B2)A-avi-His (biotinylated at the avi tag)
T1 construct: also called biotinylated N(A2B2)A-avi-His
T1 chain: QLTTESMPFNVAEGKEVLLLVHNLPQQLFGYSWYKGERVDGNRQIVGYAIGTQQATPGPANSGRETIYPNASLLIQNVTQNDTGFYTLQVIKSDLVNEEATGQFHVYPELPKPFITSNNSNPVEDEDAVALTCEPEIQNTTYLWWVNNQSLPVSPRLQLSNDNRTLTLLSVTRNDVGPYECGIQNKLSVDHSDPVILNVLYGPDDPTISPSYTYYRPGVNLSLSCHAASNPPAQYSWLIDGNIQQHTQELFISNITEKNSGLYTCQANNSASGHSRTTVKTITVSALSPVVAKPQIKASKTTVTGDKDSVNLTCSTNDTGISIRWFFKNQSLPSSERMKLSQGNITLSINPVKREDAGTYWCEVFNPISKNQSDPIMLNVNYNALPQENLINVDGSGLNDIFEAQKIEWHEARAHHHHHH
Assay: SPR, ProteOn, antigen on NLC chip, purified Fab as analyte

Binder | Kd [nM] | koff [s⁻¹] | kon [M⁻¹ s⁻¹]
B1 | 0.29 | 7.85e-05 | 267000
B2 | 0.63 | 6.53e-05 | 105000
B3 | 0.91 | 8.54e-05 | 94000
B4 | 0.29 | 3.92e-05 | 134000
B5 | 0.5 | 4.99e-05 | 100000
B6 | 0.25 | 5.78e-05 | 225000

target: T2, biotinylated huCD28-Fc (dimeric CD28-Fc construct with a monovalent biotinylated avi-tag) (human, UniProt P10747 19-152, biotinylated at the C-terminal avi tag); assay: SPR, ProteOn XPR36, huCD28-Fc on NLC chip, bispecific as analyte
T2 construct: not shown: hum IgG1 Fc fragment with hole and PG-LALA mutations; hum IgG1 Fc fragment with knob and PG-LALA mutations

Binder | Kd [nM] | koff [s⁻¹] | kon [M⁻¹ s⁻¹]
B7 | 1.1 | 0.000304 | 280000
B8 | 16.3 | 0.00342 | 211000
B9 | 1.7 | 0.000396 | 238000
B10 | 1.1 | 0.000307 | 272000
B11 | 1 | 0.000267 | 261000

target: T3, human CD28 on CHO cells (parental cell line CHO-k1 ATCC #CCL-61, modified to stably overexpress human CD28) (human, UniProt P10747 19-220); assay: binding to CHO cells expressing human CD28 (by the table's title)
T3 construct: also called hu CD28; CHO-hCD28

Binder | Kd [nM]
B7 | 1.1
B8 | 16.3
B9 | 1.7
B10 | 1.1
B11 | 1

Target: T1, N(A2B2)A-avi-His
Assay: SPR off-rate, ProteOn, antigen on NLC chip, Fab in bacterial supernatant

Binder | koff [s⁻¹]
B1 | 9.81e-05
B2 | 6.47e-05
B3 | 8.87e-05
B4 | 4.24e-05
B5 | 5.37e-05
B6 | 7.41e-05

Target: T4, NA(B2)A-avi-His (biotinylated at the avi tag)
T4 chain: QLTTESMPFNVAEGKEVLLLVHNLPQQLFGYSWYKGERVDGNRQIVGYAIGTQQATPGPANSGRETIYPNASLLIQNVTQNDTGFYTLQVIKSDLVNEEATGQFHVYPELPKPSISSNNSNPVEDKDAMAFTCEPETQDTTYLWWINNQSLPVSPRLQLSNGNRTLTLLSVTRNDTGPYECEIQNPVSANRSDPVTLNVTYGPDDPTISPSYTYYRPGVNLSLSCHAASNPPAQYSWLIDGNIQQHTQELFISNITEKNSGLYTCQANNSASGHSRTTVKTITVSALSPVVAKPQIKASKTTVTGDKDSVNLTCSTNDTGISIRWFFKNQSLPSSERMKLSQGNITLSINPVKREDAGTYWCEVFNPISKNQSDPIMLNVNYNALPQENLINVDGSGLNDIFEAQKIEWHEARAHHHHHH
Assay: SPR, ProteOn, 2000 RU NA(B2)A-avi-His on NLC chip, Fab in bacterial supernatant

Binder | binding result
B1 | no binding
B2 | no binding
B3 | no binding
B4 | no binding
B5 | no binding
B6 | no binding

target: T5, human FAP on 3T3-huFAP cells (clone 19) (human, UniProt Q12884 1-760); assay: flow cytometry on 3T3-huFAP cells, FAP-CD28 1+1 constructs, MFI (PE)

Binder | binding result
B11 | binds

target: T5, human FAP on 3T3-huFAP cells (clone 19); assay: as above; remark: another data set of the same source

Binder | binding result
B7 | binds
B8 | binds
B9 | binds
B10 | binds
